# Results as given in article PMC8421374.
# How the values were obtained:
# [1] = single-channel recordings at five voltages; details: glycan lost; control: WT Piezo1
# [2] = cell-attached patch clamp, peak stretch-activated current, Piezo1-/- HEK293T; details: glycan lost; control: WT Piezo1-GFP
# [3] = inactivation time constants, cell-attached patches; details: glycan lost; control: WT Piezo1-GFP
# [4] = cell-attached patch clamp, split construct, Piezo1-/- HEK293T; details: glycan lost; control: WT split Piezo1
# [5] = Fura-2 ratiometric Ca2+ imaging, 2 µM Yoda-1; details: glycan lost; control: WT Piezo1
# [6] = live cell anti-HA surface labelling, confocal; details: glycan lost; control: WT Piezo1 with extracellular HA tag
# [7] = immunogold TEM, membrane/cytoplasm labelling ratio; details: glycan lost; control: WT Piezo1
Substance,"other: unitary conductance, other: unitary conductance [1]",other: channel current [2],other results
human Piezo1: N295Q,no change,–,–
human Piezo1: N295Q and N885Q,–,decreases,–
human Piezo1: N658Q,no change,decreases,–
human Piezo1: N658Q and N885Q,–,decreases,–
human Piezo1: N885Q,no change,decreases,–
human Piezo1: N892Q,no change,–,–
human Piezo1: N1095Q,no change,–,–
human Piezo1: N2294Q,–,no change,other: channel inactivation kinetics [3]: no change
human Piezo1: N2294Q and N2331Q,–,–,other: channel current [4]: abolishes
human Piezo1: N2294Q/N2331Q,–,–,other: Yoda-1-evoked Ca2+ influx [5]: abolishes; localisation_or_trafficking [6]: abolishes
human Piezo1: N2294Q/N2331Q (CapQQ),–,decreases,localisation_or_trafficking [7]: decreases
human Piezo1: N2331Q,–,no change,other: channel inactivation kinetics [3]: no change
